These results are taken from patent publication US20030166873A1 (Genentech, published 2003).

The chains are these.
B1: Flt4/IgG (extracellular domain of the Flt4 receptor, amino acids 1-775, spliced to the Fc region of a human IgG heavy chain) (Fc fusion, UniProt P35916 25-775, looked up)
chain: YSMTPPTLNITEESHVIDTGDSLSISCRGQHPLEWAWPGAQEAPATGDKDSEDTGVVRDCEGTDARPYCKVLLLHEVHANDTGSYVCYYKYIKARIEGTTAASSYVFVRDFEQPFINKPDTLLVNRKDAMWVPCLVSIPGLNVTLRSQSSVLWPDGQEVVWDDRRGMLVSTPLLHDALYLQCETTWGDQDFLSNPFLVHITGNELYDIQLLPRKSLELLVGEKLVLNCTVWAEFNSGVTFDWDYPGKQAERGKWVPERRSQQTHTELSSILTIHNVSQHDLGSYVCKANNGIQRFRESTEVIVHENPFISVEWLKGPILEATAGDELVKLPVKLAAYPPPEFQWYKDGKALSGRHSPHALVLKEVTEASTGTYTLALWNSAAGLRRNISLELVVNVPPQIHEKEASSPSIYSRHSRQALTCTAYGVPLPLSIQWHWRPWTPCKMFAQRSLRRRQQQDLMPQCRDWRAVTTQDAVNPIESLDTWTEFVEGKNKTVSKLVIQNANVSAMYKCVVSNKVGQDERLIYFYVTTIPDGFTIESKPSEELLEGQPVLLSCQADSYKYEHLRWYRLNLSTLHDAHGNPLLLDCKNVHLFATPLAASLEEVAPGARHATLSLSIPRVAPEHEGHYVCEVQDRRSHDKHCHKKYLSVQALEAPRLTQNLTDLLVNVSDSLEMQCLVAGAHAPSIVWYKDERLLEEKSGVDLADSNQKLSIQRVREEDAGRYLCSVCNAKGCVNSSASVAVEGSEDKGSME
modifications: 125I-iodinated where used as the labeled form (Example 6)
notes: range 25-775; also called Flt4 receptor-IgG fusion; ^125I-Flt4/IgG; not shown: Fc region (CH2CH3, plasmid pBSSK-Fc) of a human IgG heavy chain
B2: Labeled VEGF (ligand, UniProt P15692-4 27-191, looked up)
chain: APMAEGGGQNHHEVVKFMDVYQRSYCHPIETLVDIFQEYPDEIEYIFKPSCVPLMRCGGCCNDEGLECVPTEESNITMQIMRIKPHQGQHIGEMSFLQHNKCECRPKKDRARQENPCGPCSERRKHLFVQDPQTCKCSCKNTDSRCKARQLELNERTCRCDKPRR
modifications: labeled (label not stated)
B3: VEGF165 (expression plasmid of Houck et al.) (ligand, UniProt P15692-4 27-191, looked up)
chain: B2 chain
modifications: 35S-labeled amino acids in Example 4
notes: The background calls VEGF a homodimer
B4: human VEGF-related protein (VRP), expressed from cDNA clone VH1.4 (plasmid pRK.vh1.4.2) (ligand)
chain: GPREAPAAAAAFESGLDLSDAEPDAGEATAYASKDLEEQLRSVSSVDELMTVLYPEYWKMYKCQLRKGGWQHNREQANLNSRTEETIKFAAAHTNTEILKSIDNEWRKTQCMPREVCIDVGKEFGVATNTFFKPPCVSVYRCGGCCNSEGLQCMNTSTSYLSKTLFEITVPLSQGPKPVTISFANHTSCRCMSKLDVYRQVHSIIRRSLPATLPQCQAANKTCPTNYMWNNHICRCLAQEDFMFSSDAGDDSTDGFHDICGPNKELDEETCQCVCRAGLRPASCGPHKELDRNSCQCVCKNKLFPSQCGANREFDENTCQCVCKRTCPRNQPLNPGKCACECTESPQKCLLKGKKFHHQTCSCYRRPCTNRQKACEPGFSYSEEVCRCVPSYWKRPQMS
modifications: 35S-labeled amino acids in Example 4
notes: The cleavage site after amino acid 20 is predicted ('most likely'; cleavage after 15 or 16 is not excluded); Flt4/IgG precipitated bands of 53 kDa and 33 kDa, so the secreted protein may be further processed
B5: PlGF152 (expression plasmid of Park et al.) (ligand, UniProt P49763-3 19-170, looked up)
chain: LPAVPPQQWALSAGNGSSEVEVVPFQEVWGRSYCRALERLVDVVSEYPSEVEHMFSPSCVSLLRCTGCCGDENLHCVPVETANVTMQLLKIRSGDRPSYVELTFSQHVRCECRPLREKMKPERRRPKGRGKRRREKQRPTDCHLCGDAVPRR
modifications: 35S-labeled amino acids
notes: also called PIGF; placental growth factor
B6: VH1.4 gD fusion protein (herpes glycoprotein D sequence fused to the putative mature sequence of VRP, plasmid pRK.vh1.4.5) (ligand)
chain: KYALADASLKMADPNRFRGKDLPVLDQLLEGGAAHYALLPGPREAPAAAAAFESGLDLSDAEPDAGEATAYASKDLEEQLRSVSSVDELMTVLYPEYWKMYKCQLRKGGWQHNREQANLNSRTEETIKFAAAHTNTEILKSIDNEWRKTQCMPREVCIDVGKEFGVATNTFFKPPCVSVYRCGGCCNSEGLQCMNTSTSYLSKTLFEITVPLSQGPKPVTISFANHTSCRCMSKLDVYRQVHSIIRRSLPATLPQCQAANKTCPTNYMWNNHICRCLAQEDFMFSSDAGDDSTDGFHDICGPNKELDEETCQCVCRAGLRPASCGPHKELDRNSCQCVCKNKLFPSQCGANREFDENTCQCVCKRTCPRNQPLNPGKCACECTESPQKCLLKGKKFHHQTCSCYRRPCTNRQKACEPGFSYSEEVCRCVPSYWKRPQMS
notes: also called purified VRP; gD-VRP

The target of experiment [1] is putative membrane-bound VRP (putative membrane-bound ligand) on human glioma cell line G61. The experiment can be described thus: FACS, 70 nM receptor IgG on G61 cells, compared with Rse/IgG.
Experiment [2] deals with B6. The experiment can be described thus: competition of ^125I-Flt4/IgG binding to gD-VRP on 5B6 beads by increasing unlabeled Flt4/IgG.
Experiment [3] concerns the target B1. The experiment can be described thus: binding of labeled VEGF to receptor IgG.
Experiment [4] addresses B1. The experiment in a line: receptor IgG / protein A precipitation of 35S-labeled conditioned medium.
The target of experiment [5] is B1. The experiment in a line: receptor IgG / protein A precipitation of 35S-labeled COS7 conditioned medium.
Experiment [6] concerns the target T1, Flk1/IgG (UniProt P35968 20-764, limits assumed).
T1 construct: Construct known only by citation
The experiment can be described thus: receptor IgG / protein A precipitation of 35S-labeled conditioned medium.

For experiment [7], the target named is B1. The experiment in a line: ^125I-Flt4/IgG binding to gD-VRP captured on 5B6 glass beads, filtration and counting.

T1 sequence (P35968 20-764 limits assumed): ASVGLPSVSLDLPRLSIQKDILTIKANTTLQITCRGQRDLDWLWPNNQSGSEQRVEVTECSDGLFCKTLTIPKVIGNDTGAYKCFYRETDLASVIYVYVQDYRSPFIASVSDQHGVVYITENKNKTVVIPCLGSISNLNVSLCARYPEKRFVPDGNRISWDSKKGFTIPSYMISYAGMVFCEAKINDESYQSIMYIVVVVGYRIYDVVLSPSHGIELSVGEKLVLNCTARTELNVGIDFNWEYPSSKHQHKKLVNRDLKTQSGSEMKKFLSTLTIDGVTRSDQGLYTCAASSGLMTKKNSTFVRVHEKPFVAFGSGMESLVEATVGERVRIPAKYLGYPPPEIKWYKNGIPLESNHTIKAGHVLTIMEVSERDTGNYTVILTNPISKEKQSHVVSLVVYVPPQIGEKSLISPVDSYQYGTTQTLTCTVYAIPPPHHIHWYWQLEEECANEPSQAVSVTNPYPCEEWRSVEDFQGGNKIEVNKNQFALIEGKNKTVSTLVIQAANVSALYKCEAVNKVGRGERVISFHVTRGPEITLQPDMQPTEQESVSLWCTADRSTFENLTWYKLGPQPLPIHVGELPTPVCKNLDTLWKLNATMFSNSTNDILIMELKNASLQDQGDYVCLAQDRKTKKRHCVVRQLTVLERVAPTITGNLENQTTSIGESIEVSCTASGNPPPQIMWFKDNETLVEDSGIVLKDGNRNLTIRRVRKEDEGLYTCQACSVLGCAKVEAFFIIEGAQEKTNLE

With B1, in experiment [1], the “shift in peak fluorescence intensity” value was around 10 fold. In experiment [2], this molecule returned an EC50 of around 0.7 nM.
As to B2, in experiment [3], the binding result was “no binding”.
For B3, the binding result in experiment [4] was “no binding (tested: 3 µg of receptor IgG)”.
For the molecule B4, the binding result in experiment [5] is “binds”.
As to B5, the binding result in experiment [6] and in experiment [4] was “no binding (tested: 3 µg of receptor IgG)” throughout.
Regarding B6, the binding result in experiment [7] was “binds”.
